Data set [1] deals with human polyclonal IgG in CHO-S cell culture fluid. In words: Static purification of IgG from CHO cell culture supernatant on peptide-Toyopearl resins, SDS-PAGE densitometry. The procedure:
(§1) Measurement of IgG binding by peptide-based chromatographic adsorbents: For initial studies, 35 mg of MWRGWQ (SEQ ID NO:2)-Toyopearl, RHLGWF (SEQ ID NO:3)-Toyopearl, WQRHGI (SEQ ID NO:1)-Toyopearl, GWLHQR (SEQ ID NO:4)-Toyopearl, and HWRGWV (SEQ ID NO:18)-Toyopearl (control) resins were equilibrated in PBS pH 7.4, reaching a swollen volume of 0.1 mL, and subsequently incubated with 1 mg/mL IgG in 0.205 mg/mL CHO cell culture supernatant for 30 minutes. The resins were subsequently washed several times with PBS to remove non-specifically bound proteins. Elution was performed with 100 mM glycine buffer pH 2.5. Flowthrough and elution fractions were collected and analyzed by SDS PAGE under reducing conditions. The resulting gels were stained with Coomassie staining. Further, 25 mg of the adsorbents MWRGWQ (SEQ ID NO:2)-Toyopearl, NIFRGWQ (SEQ ID NO:21)-Toyopearl, MWRAWQ (SEQ ID NO:5)-Toyopearl, MWRGFQ (SEQ ID NO:7)-Toyopearl, MWRGWN (SEQ ID NO:22)-Toyopearl, (NorL) WRGWQ (SEQ ID NO:23)-Toyopearl, MGRGWQ (SEQ ID NO:24)-Toyopearl, MWRWQ (SEQ ID NO:6)-Toyopearl, MWRGGQ (SEQ ID NO:26)-Toyopearl, GWRGWQ (SEQ ID NO:8)-Toyopearl, WQRHGI (SEQ ID NO:1)-Toyopearl, WNRHGI (SEQ ID NO:12)-Toyopearl, WQRAGI (SEQ ID NO:28)-Toyopearl, WQRHAI (SEQ ID NO:11)-Toyopearl, WQRHGL (SEQ ID NO:9)-Toyopearl, FQRHGI (SEQ ID NO:29)-Toyopearl, and WQRHGV (SEQ ID NO:10)-Toyopearl resins were equilibrated in PBS pH 7.4, reaching a swollen volume of 0.1 mL, and subsequently incubated with 1 mg/mL IgG in PBS at pH 7.4 for 30 minutes. The amount of unbound IgG in the supernatant samples was quantified by Bradford assay and utilized to determine the IgG binding % by the peptide variants.
Characterization of IgG-binding peptide variants WQRHGI (SEQ ID NO:1), MWRGWQ (SEQ ID NO:2), RHLGWF (SEQ ID NO:3), and GWLHQR (SEQ ID NO:4) in competitive conditions: The four selected sequence variants were tested for their ability to purify human IgG from a CHO cell culture supernatant and found largely to mirror their in silico predictions. Even though they seemed to underperform in silico, RHLGWF (SEQ ID NO:3) and GWLHQR (SEQ ID NO:4) were tested alongside WQRHGI (SEQ ID NO:1) and MWRGWQ (SEQ ID NO:2) in these conditions in order to confirm their ability to bind IgG and examine their selectivity as predicted in silico. The feedstock was prepared by spiking human polyclonal IgG into a clarified null CHO-S cell culture fluid to obtain an IgG concentration of 1 mg/mL and a CHO HCP concentration of 0.205 mg/mL. An aliquot of 500 μL was loaded onto each peptide adsorbent in static conditions for 30 min. Following a washing step with PBS to remove loosely bound proteins, a first elution step was conducted using 0.1 M glycine buffer pH 2.5 to remove all bound proteins. Flow through fractions and pH 2.5 elution fractions were loaded neat and analyzed by SDS PAGE (FIGS. 6A-6B). The values of IgG purity in the eluted fractions were determined by densitometric analysis of the corresponding lanes on the gels, and are reported in Table 9.

Data set [2] shares this test system. The description is as above. The following applies: Gel B, lane E (pH 4).
A short description of data set [3]: Solubility of free peptide in buffer (preparation for ITC). Type of data set: physicochemical. The procedure:
MWRGWQ (SEQ ID NO:2) was unable to be examined via ITC. Peptide MWRGWQ (SEQ ID NO:2) was not soluble in pH 7.4 buffer, likely due to self-associative properties. MWRGWQ (SEQ ID NO:2) was found soluble in highly acidic buffer, but ITC results were confounded by the heat of mixing between acidic and neutral solutions. […] Attempts were made to raise the pH of buffer in which MWRGWQ (SEQ ID NO:2) was dissolved, but the peptide was seen to gel when the pH was raised above 5.
MWRGWQ's (SEQ ID NO:2) binding affinity could not be examined using ITC. […] However, when the peptide was dissolved in a lower pH solution, the heat of mixing between the different pH solutions was extremely high, and peptide-peptide or peptide-IgG binding energies upon titration became difficult to differentiation from the heat of mixing in ITC experiments.

Another data set deals with human IgG. The format is binding. The procedure:
as §1
A limited library of residue-by-residue changes confirmed the importance of each residue in peptides WQRHGI (SEQ ID NO:1) and MWRGWQ (SEQ ID NO:2) in reducing the binding energy between the peptide and the IgG target. […] This was accomplished by designing and constructing an ensemble of 20 variants of peptides WQRHGI (SEQ ID NO:1) and MWRGWQ (SEQ ID NO:2). Selected residues in positions 1-6 were mutated. The peptide variants were synthesized directly on Toyopearl AF-amino-650M resin via Fmoc/tBu chemistry. The resulting adsorbents were incubated with a solution of human IgG at 2 mg/mL at a ratio of 1 mL of resin per 3.5 mL of solution for 30 min at room temperature. The residual concentration of IgG in solution was determined by Bradford concentration assay of the supernatants and utilized to calculate the amounts of bound IgG per volume of resin; Table 7 reports the % binding, defined as mg IgG bound by variant/mg IgG bound by original sequence (either WQRHGI (SEQ ID NO:1) or MWRGWQ (SEQ ID NO:2))×100%, of each sequence variant.

In data set [4] the test system is human polyclonal IgG in CHO cell culture fluid. In words: Chromatographic purification of IgG from CHO cell culture fluid on WorkBeads resin, SDS-PAGE densitometry. As to conditions: FIG. 8, reduced ligand density 35.2 milliequivalents/mL. The procedure:
Purification of IgG from CHO Cell culture fluids using MWRGWQC (SEQ ID NO:31)- and WQRHGIC (SEQ ID NO:30)—Workbeads: A volume of 0.1 mL of resin was packed in a PEEK microbore column, installed on a Waters 2695 unit, and equilibrated with PBS, pH 7.4. All chromatographic buffers were filtered through a compatible 0.2 μm filter prior to use. A volume of 100 μL of solution of human polyclonal IgG at 1 mg/mL in a CHO cell culture fluid at 0.205 mg/mL CHO HCPs was injected in the column at 0.02 mL/min (RT: 5 minutes). Following injection, the resin was washed with PBS at 0.2 mL/min and, subsequently, with 100 mM NaCl in PBS at 0.2 mL/min. Elution was then conducted with […] pH 4. An acidic cleaning step was conducted in 0.1 M glycine pH 2.5 to remove any proteins still bound. The absorbance of the effluent was monitored by UV/Vis spectrophotometry at 280 nm. Fractions were collected and adjusted to neutral pH. Total protein concentration was measured by BCA assay. All collected fractions were also analyzed via SDS PAGE under reducing conditions. The gel was stained by silver staining, and the overall IgG purity in the eluted fractions was determined by densitometric analysis using ImageJ software. Finally, the feed and eluted fractions were analyzed using a CHO-specific ELISA kit to determine the log removal value (LRV) of HCPs.
The high purity of the recovered IgG using WQRHGI (SEQ ID NO:1), as calculated by densitometric analysis (100%) was confirmed by the HCP LRV value of 2.7, thus indicating WQRHGI (SEQ ID NO:1) has purification abilities similar to Protein A. This is a remarkable result. […] The collected chromatographic fractions were analyzed by SDS-PAGE (FIG. 7B, silver stained to highlight diluted CHO HCPs). The % values of IgG in the fractions (expressed as a ratio of IgG concentration over total protein (e.g., IgG+CHO HCPs)) were calculated by densitometric analysis of the lanes in the SDS gel and were as follows: Control (C), 0.00%; Load (L) 59.77%; Flowthrough (FT), 0.00%; Elution 1 (El1), 100.00%; Elution 2 (El2), 0.00%; IgG 93.30%. […]

The test system of a further data set is host cell protein (HCP). The following applies: literature value; cited from earlier work.
The target of data set [5] is human polyclonal IgG (human). In words: ITC at 25 C, peptide titrated into polyclonal IgG in PBS pH 7.4, independent single-site fit.
In data set [6] the target is human polyclonal IgG (human). In words: batch incubation of peptide-Toyopearl resin with human IgG, Bradford of unbound IgG; mg IgG bound relative to WQRHGI (the reference itself).
The target in data set [7] is human polyclonal IgG (human). Kind of data set: batch adsorption isotherm of IgG on peptide-WorkBeads resin, BCA of unbound IgG, Langmuir fit.
The target in data set [8] is human polyclonal IgG (human). In words: batch adsorption isotherm of IgG on peptide-WorkBeads resin, BCA of unbound IgG, Langmuir fit (KD(Solid)).
In data set [9] the target is human polyclonal IgG (human). In words: breakthrough curve, 20 mg/mL IgG in PBS on a peptide-WorkBeads column, residence time 5 min.
In data set [10] the target is human polyclonal IgG (human). In words: breakthrough curve, 20 mg/mL IgG in PBS on a peptide-WorkBeads column, residence time 2 min.
Data set [11] concerns the target human polyclonal IgG (human). In words: batch incubation of peptide-Toyopearl resin with human IgG, Bradford of unbound IgG; mg IgG bound relative to MWRGWQ (the reference itself).

Here are results for 7 molecules from US20230399358A1, “IMMUNOGLOBULIN PURIFICATION PEPTIDES AND THEIR USE” (North Carolina State University, priority 2019, published 2023).

“Also recorded” adds a separate entry of the source. No end group written: not given here.

Turning to GWLHQR, the “% Purity (IgG over total proteins)” value in data set [1] (Gel B, lane FT (flow-through)) was found to be 57.02%. In addition, the “% Purity (IgG over total eluted proteins)” value in data set [1] (Gel B, lane R (pH 2.5)) is 0.00%; in [2], 100%. In data set [1] (competitive conditions, CHO cell culture supernatant), the IgG yield result was “lower than expected IgG yields; also recorded: lower IgG yield”.
On to MWRGWQ [MWRGWQ], for which the solubility result in [3] (highly acidic buffer / lower pH) is given as “soluble; also recorded: could be dissolved”; in [3] (pH 7.4 buffer / neutral pH) it was “not soluble; also recorded: tended to gel”. In the data set on human IgG, the “% Binding (mg IgG bound by variant/mg IgG bound by original sequence × 100%)” value turned out to be 100.00%.
For the molecule “Protein A: Protein A adsorbent, industrial standard for mAb capture”, the results for the “% Purity (IgG over total protein)” value in data set [4] (elution lane (pH 4)) and in [4] (lane FT) were 100.00% and 55.74%, respectively. Moreover, the “HCP LRV” value in the data set with host cell protein (HCP) is recorded as 2.5-3.0.

B1: WQRHGI (SEQ ID NO:1) (peptide)
peptide: WQRHGI
For orientation: Kd means the free concentration of one partner at which half of the binding sites on the other are occupied at equilibrium, for simple one-to-one binding. A low value points to a tighter complex. For B1, in data set [5], the Kd is 58.8 µM and the stoichiometry (N, interacting peptides per IgG) (peptides per IgG) was 10. Moreover, the % Binding in data set [6] turned out to be 100%.

B2: MWRGWQC (SEQ ID NO:31)-WorkBeads (peptide)
peptide: MWRGWQC(iodoacetyl‑activated TREN WorkBeads resin)
modifications: not fully specified
With B2, the Qmax (mg IgG/mL resin) in data set [7] turned out to be 57.5. For the same molecule, in [8], the Kd amounted to 8.1 µM. For the same molecule, the values for the DBC (dynamic binding capacity at 10% breakthrough) (mg IgG/mL resin) in data set [9] and in data set [10] were 55.3 and 44, respectively.

B3: MWRGWQ (SEQ ID NO:2) (peptide)
peptide: MWRGWQ
Molecule B3 had a % Binding in [11] of 100%.

B4: WQRHGIC (SEQ ID NO:30)-WorkBeads (peptide)
peptide: WQRHGIC(iodoacetyl‑activated TREN WorkBeads resin)
modifications: not fully specified
For the molecule B4, in data set [7], the Qmax (mg IgG/mL resin) stood at 52.6. The Kd in data set [8] was 3.2 µM. The DBC (dynamic binding capacity at 10% breakthrough) (mg IgG/mL resin) in data set [9] was 43.8; in data set [10], 33.6.
